Patent publication US20230159655A1

How the values were obtained:
[1] = target: CD73 endogenously expressed on the cell surface (MDA-MB-231 cells; U87-MG cells) (UniProt P21589); test: flow cytometry on MDA-MB-231 cells; antibody 0.41 nM
[2] = target: human NT5E-Biotin (NT5E, GenbankID: NP_002517.1, position: 1-552) (human) (UniProt P21589); test: ELISA on SA-captured NT5E-Biotin; antibody 0.333 ug/mL diluted 1:27; replicate 1
[3] = target: human NT5E-Biotin (NT5E, GenbankID: NP_002517.1, position: 1-552) (human) (UniProt P21589); test: ELISA on SA-captured NT5E-Biotin; antibody 0.333 ug/mL diluted 1:81; replicate 2
[4] = target: human NT5E-Biotin (NT5E, GenbankID: NP_002517.1, position: 1-552) (human) (UniProt P21589); test: ELISA on SA-captured NT5E-Biotin; antibody 0 (blank); replicate 2
[5] = target: human NT5E-Biotin (NT5E, GenbankID: NP_002517.1, position: 1-552) (human) (UniProt P21589); test: ELISA on SA-captured NT5E-Biotin; antibody 0.333 ug/mL diluted 1:3; replicate 2
[6] = target: human NT5E-Biotin (NT5E, GenbankID: NP_002517.1, position: 1-552) (human) (UniProt P21589); test: ELISA on SA-captured NT5E-Biotin; antibody 0.333 ug/mL diluted 1:729; replicate 2
[7] = target: human NT5E-Biotin (NT5E, GenbankID: NP_002517.1, position: 1-552) (human) (UniProt P21589); test: ELISA on SA-captured NT5E-Biotin; antibody 0.333 ug/mL diluted 1:243; replicate 1
[8] = target: human NT5E-Biotin (NT5E, GenbankID: NP_002517.1, position: 1-552) (human) (UniProt P21589); test: ELISA on SA-captured NT5E-Biotin; antibody 0.333 ug/mL; replicate 1
[9] = target: human NT5E-Biotin (NT5E, GenbankID: NP_002517.1, position: 1-552) (human) (UniProt P21589); test: ELISA on SA-captured NT5E-Biotin; antibody 0.333 ug/mL diluted 1:27; replicate 2
[10] = target: CD73 endogenously expressed on the cell surface (MDA-MB-231 cells; U87-MG cells) (UniProt P21589); test: flow cytometry on MDA-MB-231 cells; antibody […]
[11] = target: human NT5E-Biotin (NT5E, GenbankID: NP_002517.1, position: 1-552) (human) (UniProt P21589); test: ELISA on SA-captured NT5E-Biotin; antibody 0.333 ug/mL diluted 1:729; replicate 1
[12] = target: CD73 endogenously expressed on the cell surface (MDA-MB-231 cells; U87-MG cells) (UniProt P21589); test: flow cytometry on MDA-MB-231 cells; antibody 0.05 nM
[13] = target: human NT5E-Biotin (NT5E, GenbankID: NP_002517.1, position: 1-552) (human) (UniProt P21589); test: ELISA on SA-captured NT5E-Biotin; antibody 0.333 ug/mL; replicate 2
[14] = target: human NT5E-Biotin (NT5E, GenbankID: NP_002517.1, position: 1-552) (human) (UniProt P21589); test: ELISA on SA-captured NT5E-Biotin; antibody 0.333 ug/mL diluted 1:9; replicate 1
[15] = target: CD73 endogenously expressed on the cell surface (MDA-MB-231 cells; U87-MG cells) (UniProt P21589); test: flow cytometry on MDA-MB-231 cells; antibody 100.00 nM
[16] = target: CD73 endogenously expressed on the cell surface (MDA-MB-231 cells; U87-MG cells) (UniProt P21589); test: flow cytometry on MDA-MB-231 cells; antibody 3.70 nM
[17] = target: CD73 endogenously expressed on the cell surface (MDA-MB-231 cells; U87-MG cells) (UniProt P21589); test: flow cytometry on MDA-MB-231 cells; antibody 33.33 nM
[18] = target: human NT5E-Biotin (NT5E, GenbankID: NP_002517.1, position: 1-552) (human) (UniProt P21589); test: ELISA on SA-captured NT5E-Biotin; antibody 0.333 ug/mL diluted 1:243; replicate 2
[19] = target: human NT5E-Biotin (NT5E, GenbankID: NP_002517.1, position: 1-552) (human) (UniProt P21589); test: ELISA on SA-captured NT5E-Biotin; antibody 0.333 ug/mL diluted 1:81; replicate 1
[20] = target: human NT5E-Biotin (NT5E, GenbankID: NP_002517.1, position: 1-552) (human) (UniProt P21589); test: ELISA on SA-captured NT5E-Biotin; antibody 0.333 ug/mL diluted 1:3; replicate 1
[21] = target: CD73 endogenously expressed on the cell surface (MDA-MB-231 cells; U87-MG cells) (UniProt P21589); test: flow cytometry on MDA-MB-231 cells; antibody 0.14 nM
[22] = target: human NT5E(1-552)-his (human) (UniProt P21589); test: Fortebio BLI, antibody on Protein A sensor, antigen 3.125-200 nM, 37 C, 1:1 fit
[23] = target: human NT5E-Biotin (NT5E, GenbankID: NP_002517.1, position: 1-552) (human) (UniProt P21589); test: ELISA on SA-captured NT5E-Biotin; antibody 0 (blank); replicate 1
[24] = target: CD73 endogenously expressed on the cell surface (MDA-MB-231 cells; U87-MG cells) (UniProt P21589); test: flow cytometry on MDA-MB-231 cells; antibody 11.11 nM
[25] = target: human NT5E-Biotin (NT5E, GenbankID: NP_002517.1, position: 1-552) (human) (UniProt P21589); test: ELISA on SA-captured NT5E-Biotin; antibody 0.333 ug/mL diluted 1:9; replicate 2

Chain of human NT5E-Biotin (NT5E, GenbankID: NP_002517.1, position: 1-552) (human) (P21589 27-552 limits assumed, form in doubt): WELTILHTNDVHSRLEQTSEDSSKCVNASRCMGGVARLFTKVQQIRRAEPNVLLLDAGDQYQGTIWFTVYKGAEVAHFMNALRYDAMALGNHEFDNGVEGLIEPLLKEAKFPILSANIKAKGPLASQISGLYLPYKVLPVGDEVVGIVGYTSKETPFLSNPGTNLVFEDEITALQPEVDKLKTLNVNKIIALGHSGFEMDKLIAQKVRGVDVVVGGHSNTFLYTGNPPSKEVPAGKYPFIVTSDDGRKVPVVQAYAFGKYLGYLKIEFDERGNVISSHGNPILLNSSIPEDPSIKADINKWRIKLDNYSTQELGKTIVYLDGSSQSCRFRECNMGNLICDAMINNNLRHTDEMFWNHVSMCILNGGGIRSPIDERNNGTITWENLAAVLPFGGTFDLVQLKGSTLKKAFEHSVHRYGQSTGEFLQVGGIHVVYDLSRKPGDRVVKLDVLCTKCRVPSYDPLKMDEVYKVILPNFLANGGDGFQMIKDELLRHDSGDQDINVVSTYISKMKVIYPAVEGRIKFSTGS
Chain of CD73 endogenously expressed on the cell surface (MDA-MB-231 cells; U87-MG cells) (P21589 27-549 limits assumed): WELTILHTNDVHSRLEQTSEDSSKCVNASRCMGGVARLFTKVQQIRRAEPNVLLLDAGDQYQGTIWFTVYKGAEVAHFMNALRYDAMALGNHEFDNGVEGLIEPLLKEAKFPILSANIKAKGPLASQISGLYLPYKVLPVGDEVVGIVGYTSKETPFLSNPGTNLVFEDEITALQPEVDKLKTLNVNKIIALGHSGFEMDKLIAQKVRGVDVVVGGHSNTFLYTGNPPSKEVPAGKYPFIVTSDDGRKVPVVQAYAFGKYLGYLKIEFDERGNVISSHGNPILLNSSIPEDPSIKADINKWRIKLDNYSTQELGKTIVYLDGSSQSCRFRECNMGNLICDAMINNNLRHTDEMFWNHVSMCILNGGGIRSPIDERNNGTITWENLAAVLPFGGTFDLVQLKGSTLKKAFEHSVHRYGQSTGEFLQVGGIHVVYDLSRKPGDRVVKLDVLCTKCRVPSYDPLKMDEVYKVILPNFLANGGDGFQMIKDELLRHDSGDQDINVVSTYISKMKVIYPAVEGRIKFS
Chain of human NT5E(1-552)-his (human) (P21589 27-552 limits assumed, form in doubt): as the sequence (P21589 27-552 limits assumed, form in doubt) above

## positive control antibody MEDI9447 (oleclumab)
[1]
  fluorescence intensity (FACS): 91
[2]
  OD 450 nm: 1.77 OD450
[3]
  OD 450 nm: 1.03 OD450
[4]
  OD 450 nm: 0.116 OD450
[5]
  OD 450 nm: 2.6 OD450
[6]
  OD 450 nm: 0.275 OD450
[7]
  OD 450 nm: 0.536 OD450
[8]
  OD 450 nm: 2.55 OD450
[9]
  OD 450 nm: 1.74 OD450
[10]
  fluorescence intensity (FACS): 267
[11]
  OD 450 nm: 0.272 OD450
[12]
  fluorescence intensity (FACS): 28.4
[13]
  OD 450 nm: 2.53 OD450
[14]
  OD 450 nm: 2.27 OD450
[15]
  fluorescence intensity (FACS): 581
[16]
  fluorescence intensity (FACS): 454
[17]
  fluorescence intensity (FACS): 546
[18]
  OD 450 nm: 0.528 OD450
[19]
  OD 450 nm: 1.06 OD450
[20]
  OD 450 nm: 2.57 OD450
[21]
  fluorescence intensity (FACS): 43.2
[22]
  S E (kdis): 5.02e-06 s⁻¹
[23]
  OD 450 nm: 0.121 OD450
[24]
  fluorescence intensity (FACS): 519
[25]
  OD 450 nm: 2.28 OD450
